Biological target: Escherichia coli CTP synthase (ecCTPS), wild type (Escherichia coli) (UniProt P0A7E5)
Test: cryo-EM structure

## Escherichia coli CTP synthase (ecCTPS), wild type (from UniProt P0A7E5 1-545) (enzyme)
  stoichiometry N: 4

Source: article doi:10.1101/2023.10.19.563106
